The values that follow come from US20260008852A1 (CRYSTAL BIOSCIENCE, published 2026).

In assay [1] the target is T1, His-tagged mouse B7-H3 (mouse, UniProt Q8VE98 29-244, limits assumed).
T1 construct: Bought His-tagged protein coated on the ELISA plate; also called mu B7-H3; murine B7-H3
T1 sequence (looked up): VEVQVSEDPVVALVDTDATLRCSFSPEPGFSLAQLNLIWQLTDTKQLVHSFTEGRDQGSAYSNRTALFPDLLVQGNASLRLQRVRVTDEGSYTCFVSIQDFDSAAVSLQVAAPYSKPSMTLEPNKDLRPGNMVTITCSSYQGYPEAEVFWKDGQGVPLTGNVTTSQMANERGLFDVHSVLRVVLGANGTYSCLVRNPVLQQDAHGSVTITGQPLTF
Briefly: ELISA, coated His-tagged antigen.

Assay [2] deals with T2, His-tagged human B7-H3 (human, UniProt Q5ZPR3-2 29-245, limits assumed).
T2 construct: Bought His-tagged protein coated on the ELISA plate; also called hu B7-H3; CD276
T2 sequence (looked up): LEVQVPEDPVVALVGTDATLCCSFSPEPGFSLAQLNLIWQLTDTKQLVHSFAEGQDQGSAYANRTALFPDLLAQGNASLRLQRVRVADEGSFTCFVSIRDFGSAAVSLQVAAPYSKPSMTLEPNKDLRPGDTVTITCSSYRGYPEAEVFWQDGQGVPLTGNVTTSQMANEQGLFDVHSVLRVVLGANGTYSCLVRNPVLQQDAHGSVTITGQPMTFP
Briefly: ELISA OD450 on hu B7-H3 over OD450 on mu B7-H3. (An ELISA detects its analyte on a solid surface through an enzyme-linked reagent.)

In assay [3] the target is T2, His-tagged human B7-H3. In words: ELISA, coated His-tagged antigen, scFv-Fc 1 ug/ml.
For assay [4], the target named is T1, His-tagged mouse B7-H3. Briefly: ELISA, coated His-tagged antigen, scFv-Fc 1 ug/ml.
Assay [5] has as its target T3, His-tagged cynomolgus monkey B7-H3 (cynomolgus monkey).
T3 chain: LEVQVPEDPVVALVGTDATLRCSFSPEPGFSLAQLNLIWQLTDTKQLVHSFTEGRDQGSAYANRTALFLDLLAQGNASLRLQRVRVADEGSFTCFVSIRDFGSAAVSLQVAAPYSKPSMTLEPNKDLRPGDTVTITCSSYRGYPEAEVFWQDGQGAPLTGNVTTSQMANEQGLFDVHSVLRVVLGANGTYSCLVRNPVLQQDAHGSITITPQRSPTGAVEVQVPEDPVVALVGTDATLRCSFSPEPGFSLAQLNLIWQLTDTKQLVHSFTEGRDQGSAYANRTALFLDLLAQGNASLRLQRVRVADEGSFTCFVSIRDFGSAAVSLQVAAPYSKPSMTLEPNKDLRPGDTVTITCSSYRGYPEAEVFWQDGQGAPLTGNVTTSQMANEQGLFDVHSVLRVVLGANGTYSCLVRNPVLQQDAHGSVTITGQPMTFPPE
Briefly: ELISA, coated His-tagged antigen, scFv-Fc 1 ug/ml.

Assay [6] deals with T4, B7-H3 on B7-H3-expressing CHO cells (Genescript) (UniProt Q5ZPR3 29-534, limits assumed).
T4 construct: whole, on cells; also called CHO-K1/B7-H3; MFI B7-H3
T4 sequence (looked up): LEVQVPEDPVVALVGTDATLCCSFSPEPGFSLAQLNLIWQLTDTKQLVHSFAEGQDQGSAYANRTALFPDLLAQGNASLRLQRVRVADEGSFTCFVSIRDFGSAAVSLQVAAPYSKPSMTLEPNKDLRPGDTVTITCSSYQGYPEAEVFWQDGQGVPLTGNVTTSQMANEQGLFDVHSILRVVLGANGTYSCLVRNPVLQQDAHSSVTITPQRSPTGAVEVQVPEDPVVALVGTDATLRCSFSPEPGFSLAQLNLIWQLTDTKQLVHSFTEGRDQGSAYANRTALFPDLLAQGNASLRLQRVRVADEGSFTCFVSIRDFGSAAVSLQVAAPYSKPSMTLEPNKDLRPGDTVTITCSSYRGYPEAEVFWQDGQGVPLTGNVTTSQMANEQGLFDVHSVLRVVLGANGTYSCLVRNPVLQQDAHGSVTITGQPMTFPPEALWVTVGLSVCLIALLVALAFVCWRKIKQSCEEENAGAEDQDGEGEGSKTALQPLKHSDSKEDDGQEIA
In words: flow cytometry, B7-H3-expressing CHO cells, 10 ug/ml. The gist of the method: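 Antibodies at 10 μg/ml in PBS/1% BSA/0.01% NaN3 incubated 60 min on ice with ~1.5e5 cells; parental CHO cells as counterscreen. After washing, read by flow cytometry; values are mean fluorescent intensities (MFI).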
(In general: Flow cytometry measures light scatter and fluorescence of single cells or particles in a stream.)

B1: 40511p1.2.A8 (scFv, V domains shown)
VH: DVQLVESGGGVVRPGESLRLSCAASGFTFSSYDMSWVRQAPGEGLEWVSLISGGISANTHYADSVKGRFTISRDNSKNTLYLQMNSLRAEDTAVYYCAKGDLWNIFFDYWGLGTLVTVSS
VL: EIVLTQSPATLSVSPGERATFSCRASQNVRSYLAWYQQKPGQAPRLLIFNTVTRATGIPDRFSGSGSGTDFTLTISSLEPEDFAVYYCQQYYDWPPLTFGGGTKVEIK
notes: Tested as scFv-Fc (Expi293 supernatant)
For B1, the binding result with His-tagged mouse B7-H3 [1] is “no binding (tested: 1 ug/ml)”. Further, in the assay with His-tagged human B7-H3 [2], the “hu:mu ratio” value stood at 38.4. The “ELISA OD450 @ 1 ug/ml” value with His-tagged human B7-H3 [3] turned out to be 2.11 OD450; with His-tagged mouse B7-H3 [4], 0.055 OD450; in assay [5] it was 2.34 OD450. Also, the “MFI @ 10 ug/ml” value in assay [6] came to 25400 MFI.

B2: 40579p1.H11 (scFv, V domains shown)
VH: EVQLLESGGGLVQPGGSLRLSCAASGFTFDDYGMSWVRQAPGKGLEWVSAIRSKASSYATYYADSVKGRFTVSRDNSENTLYLQMNSLRAEDTAVYYCAKHRSNYYFMDVWGQGTTVTVSS
VL: EIVLTQSPGTLSLSPGERATLSCRASQSVGSDLAWYQQRPGQAPRLLIYAASSRATDIPDRFSGSGSGTDFTLTISSLQSEDFAVYYCQQYYSWPPLTFGGGTKVEIK
notes: as for B1
Regarding B2, the binding result in the assay with His-tagged mouse B7-H3 [1] is “no binding (tested: 1 ug/ml)”. Further, the “ELISA OD450 @ 1 ug/ml” value with His-tagged mouse B7-H3 [4] turned out to be 0.051 OD450; in assay [5], 0.769 OD450. Besides, in assay [6], the “MFI @ 10 ug/ml” value was 11600 MFI.

B3: 40579p1.D1 (scFv, V domains shown)
VH: EVQLLESGGGLVQPGGSLRLSCAASGFTFSDYYMSWVRQAPGKGLEWVSSISISYGGTTYYADSVKGRFTISRDNSKNTLYLQMNSLRAEDTAVYYCARDRSPYQCRSMDVWGQGTTVTVSS
VL: EIVLTQSPGSLSLSPGERATLSCRASQSVNSDLAWYQQKPGQAPRLLIYAASSRATGIPARFSGSGSGTEFTLTISSLQSEDFAVYYCQQYNNWPPLTFGGGTKVEIK
notes: as for B1
For B3, the “hu:mu ratio” value in the assay with His-tagged human B7-H3 [2] was 1.74. Also, the “ELISA OD450 @ 1 ug/ml” value with His-tagged human B7-H3 [3] was determined as 0.492 OD450; in the assay with His-tagged mouse B7-H3 [4] it was 0.283 OD450; in assay [5], 1.33 OD450. In addition, the “MFI @ 10 ug/ml” value in assay [6] was found to be 36000 MFI.

B4: 40579p1.D8 (scFv, V domains shown)
VH: EVQLLESGGGLVQPGGSLRLSCAASGFTFSDYYMSWVRQAPGKGLEWVSSISISYGGTTYYADSVKGRFTISRDNSKNTLYLQMNSLRAEDTAVYYCARDRSPYQCRSMDVWGQGTTVTVSS
VL: EIVLTQSPGTLSLSPGERATLSCRASQSIRSDLAWYQQKPGQAPRLLIYNTVTRATGVPDRFSGSGSGTEFTLTISSLQSEDFAVYYCQQYNSWPPLTFGGGTKVEIK
notes: as for B1
Regarding B4, the “hu:mu ratio” value with His-tagged human B7-H3 [2] amounted to 2.1. In addition, the “ELISA OD450 @ 1 ug/ml” value came out at 1.01 OD450 with His-tagged human B7-H3 [3], 0.48 OD450 in the assay with His-tagged mouse B7-H3 [4] and 1.87 OD450 in assay [5]. For the same molecule, in assay [6], the “MFI @ 10 ug/ml” value came out at 40800 MFI.
